Source: article PMC2739207 (BMC Structural Biology, 2009)

T1: 40 kDa C-terminal fragment of the lysosomal 66.3 kDa protein from mouse (C249-D594) (mouse, UniProt Q3TCN2 249-594, N-glycans at N441 and N520; C249 partially oxidized, modeled as cysteine sulfonic acid (OCS))
T1 construct: lysosomal 66.3 kDa protein, mouse; C-terminal proteolytic fragment beginning at C249; ordered in 3FGR and 3FGT: C249-P592; W593, D594 and the eleven tag residues are disordered; Made by cleavage of the 66.3 kDa proprotein between S248 and C249; also called 40 kDa fragment; chain B; source: gel filtration only for the batch of 3FGR
T1 sequence (looked up): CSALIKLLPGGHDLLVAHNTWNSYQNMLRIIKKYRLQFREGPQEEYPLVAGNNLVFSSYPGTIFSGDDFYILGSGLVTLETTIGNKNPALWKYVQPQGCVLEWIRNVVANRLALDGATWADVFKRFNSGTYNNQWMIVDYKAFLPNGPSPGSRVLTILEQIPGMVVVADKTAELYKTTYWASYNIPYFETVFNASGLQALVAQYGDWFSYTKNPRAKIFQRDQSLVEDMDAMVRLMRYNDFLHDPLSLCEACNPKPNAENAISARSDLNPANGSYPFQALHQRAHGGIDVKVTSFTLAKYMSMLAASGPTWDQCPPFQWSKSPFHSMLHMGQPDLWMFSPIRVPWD


Key:
[1] = target: T1, 40 kDa C-terminal fragment of the …; test: crystal structure; crystals grown under acidic conditions (PEG 4000, NaAc/HAc pH 4.6, NH4Ac); crystal form I, space group C2, one molecule in the asymmetric unit; 3FGR at 1.8 Å, 3FGT at 2.4 Å; details: both partners purified
[2] = target: the molecule itself; test: SEC; gel filtration column during protein purification, after affinity and anion exchange columns; single 280 nm absorption peak; conditions as in ref. 17

binding result [1] | Binder | stoichiometry N [2]
binds | 28 kDa N-terminal fragment of the lysosomal 66.3 kDa protein from mouse, shorter form (L47-S246) (domain or fragment, UniProt Q3TCN2 47-246, looked up, N-glycans at N115 and N236 seen in 3FGT, lysosomal 66.3 kDa protein, mouse; 28 kDa fragment truncated at the C-terminus by two residues; residues L47-S246 by mass spectrometry; ordered in 3FGT: D60-N239; residues after N239 are disordered in the structure; also called shorter version of the 28 kDa fragment; chain A of 3FGT; source: HT1080 human fibrosarcoma cells, overexpressed, purified (original protocol lacking a gel filtration)) LPTLGPGWQRQNPDPPVSRTRSLLLDAASGQLRLEDGFHPDAVAWANLTNAIRETGWAYLDLSTNGRYNDSLQAYAAGVVEASVSEELIYMHWMNTVVNYCGPFEYEVGYCEKLKNFLEANLEWMQREMELNPDSPYWHQVRLTLLQLKGLEDSYEGRLTFPTGRFTIKPLGFLLLQISGDLEDLEPALNKTNTKPSLGS | 
binds | 28 kDa N-terminal fragment of the lysosomal 66.3 kDa protein from mouse (L47-S248) (domain or fragment, UniProt Q3TCN2 47-248, looked up, N-glycans at N93, N115 and N236, lysosomal 66.3 kDa protein, mouse; N-terminal proteolytic fragment after cleavage between S248 and C249; residues L47-S248 by mass spectrometry; ordered in 3FGR: V63-T238 and G245-S248; Made by cleavage of the 66.3 kDa proprotein; it never stood apart from the 40 kDa fragment; The protein batch also holds the shorter form L47-S246 and the uncleaved protein; also called 28 kDa fragment; …) LPTLGPGWQRQNPDPPVSRTRSLLLDAASGQLRLEDGFHPDAVAWANLTNAIRETGWAYLDLSTNGRYNDSLQAYAAGVVEASVSEELIYMHWMNTVVNYCGPFEYEVGYCEKLKNFLEANLEWMQREMELNPDSPYWHQVRLTLLQLKGLEDSYEGRLTFPTGRFTIKPLGFLLLQISGDLEDLEPALNKTNTKPSLGSGS | 
 | lysosomal 66.3 kDa protein from mouse (natural protein, UniProt Q3TCN2 47-594, looked up, N-glycans at N93, N115, N236, N441 and N520; mannose 6-phosphate containing, lysosomal 66.3 kDa protein, mouse; proprotein after removal of the signal peptide, L47-D594; ordered in 3FGW: P61-N239 and G245-D594; The preparation on the gel filtration column was a mixture of the uncleaved chain and the cleaved form (28 kDa plus 40 kDa fragments); the dimer is told of the 66.3 kDa protein as a whole; also called uncleaved 66.3 kDa protein; uncleaved form (3FGW)) LPTLGPGWQRQNPDPPVSRTRSLLLDAASGQLRLEDGFHPDAVAWANLTNAIRETGWAYLDLSTNGRYNDSLQAYAAGVVEASVSEELIYMHWMNTVVNYCGPFEYEVGYCEKLKNFLEANLEWMQREMELNPDSPYWHQVRLTLLQLKGLEDSYEGRLTFPTGRFTIKPLGFLLLQISGDLEDLEPALNKTNTKPSLGSGSCSALIKLLPGGHDLLVAHNTWNSYQNMLRIIKKYRLQFREGPQEEYPLVAGNNLVFSSYPGTIFSGDDFYILGSGLVTLETTIGNKNPALWKYVQPQGCVLEWIRNVVANRLALDGATWADVFKRFNSGTYNNQWMIVDYKAFLPNGPSPGSRVLTILEQIPGMVVVADKTAELYKTTYWASYNIPYFETVFNASGLQALVAQYGDWFSYTKNPRAKIFQRDQSLVEDMDAMVRLMRYNDFLHDPLSLCEACNPKPNAENAISARSDLNPANGSYPFQALHQRAHGGIDVKVTSFTLAKYMSMLAASGPTWDQCPPFQWSKSPFHSMLHMGQPDLWMFSPIRVPWD | 2
